From the supplement of paper PMC10567573

B1: S100A14 (parent)
chain: KIANLGSCNDSKLEFRSFWELIGE

Variants of: B1
Experiment: protein stability index of a GFP-peptide fusion (GPS, HEK-293T) (PSI 1-6); higher = more stable
Conditions: c terminus: a fixed tail appended
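Note: lentivirally expressed fusions sorted by FACS into six bins by GFP to DsRed ratio, PSI derived from sequencing read proportions per bin multiplied by bin number.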

Protein stability index, by site and new letter:
C8: D 2.63, V 2.08, H 1.22, L 1.49, Q 1.68, F 1.56, R 2.07
E24: F 1.88, K 2.06, Y 1.84, I 2.86
F15: Q 2.25, P 2.42, R 2.7, D 2.51, C 1.75, W 2.75, G 1.92, L 1.06
K1: T 2.13, Q 2.02, P 1.95, F 2.99, M 1.59, G 2.04
G6: N 2.94, P 1.67, V 2.51, C 2.45, A 2.11, L 3.46, W 2.21, H 1.5
W19: C 1.46, I 1.97, T 2.29, D 3.58, K 2.11, Y 1.78, R 2.09
L21: W 1.18, C 1.62, D 2.57, H 1.9, P 2.59, E 2.08, A 2.74, F 2.16, K 1.86
D10: G 2.84, F 1.92, R 1.74, C 1.95
I22: A 2.59, G 2.32, V 1.79, Q 2.24, P 2.29, R 1.98, S 2.28, D 2.65, F 2.95, H 1.9
E14: S 1.8, H 1.71, P 1.61, R 2.7, L 2.08, D 1.89, K 1.47
A3: H 2.38, E 1.95, P 1.23, F 3.12, R 1.33, G 2.48
S17: N 1.5, E 1.87, G 1.33, H 1.46, T 2.75
K12: Q 1.26, M 2.21, P 1.95, C 2.01, D 2.24, G 1.59, H 2.35, I 1.8, E 3.21
N9: W 1.83, T 1.56, E 2.19, F 1.86, D 1.59, V 2.01, C 1.75, Q 1.77, K 2.23, I 1.69
S7: M 1.62, I 1.89, K 1.44, N 2.32, L 1.79, T 1.71
F18: I 1.85, W 2.16, R 2.5, C 2.11, H 2.82, A 2.2
L13: H 2.12, R 1.5, Q 1.92, C 1.21, G 2.18, N 1.88, W 2.31
R16: I 1.97, G 1.54, A 1.28, P 2.28, V 2.3, W 2.25, T 1.61, E 1.92
S11: P 2.81, H 1.62, R 2, M 1.4, I 1.75, W 1.18, K 1.69
E20: I 2.29, A 1.64, N 2.29, H 2.15, L 2.77, M 3.34, S 1.94
I2: G 2, M 1.99, F 1.55, H 2.31, K 1.54, R 2.13
L5: I 1.41, Q 2.17, M 1.85, K 2.89, V 2.09
N4: R 1.07, Q 1.72, P 1.83, H 2.71, L 1.67, S 2, T 1.7
G23: N 2.21, P 2.04, H 2.29, D 1.75, V 2.18, A 1.89, L 1.62, Y 1.75
